The data set is described as follows: label from the status in PepcDB records.
As to “MAVSSNGGAIKAVIYDCDGVMFDSFEANLAFYQRIMEMMGRPRLSRDNEEQMRILHTYANREVLAHFFPSPGDWEEAVRCAGAIDYRELVPLMIMEEGFREALDTLKGRVGLGVCTNRSTSMDMVLRLFSLDSYFSIVMTASRVTNPKPHPEPLLKVLEHFGIGPREALFVGDSEVDRLSAEAAGVPFVAYKAPLPAAYRMEHHREIIDLLG”, the protein production entry was “not failed”.
In the case of “MAVTSPNMPASIRWGGIVALIQSTIGFGYAFFLIYREATGETDPSIVYETDNANTWVGYGTAAFFIIVFGTVVAGAINMMKGHRWGRGAVVMLNIILLPAAYYMFIEGRFSWAIVTGISALFVLGALFNKRAVLWANNEI”, the protein production entry is reported as “failed”.
Turning to “MAVVGFDAAKISILDENEKVTDTFTIDRSSGGTIEANISGLAPNMNVVYASNVPFYVSAKGTSEVKCELTVADLDDLGTEAVNKILGREQDSTTKITKVGVNTTPPYCVLELISKDKQGKGLFLGLLKGKFTFDGEDMKTSDNNGSQLSEDKVTMQCISRKDGYIYAKAKEADGTTQADFEKFIMPAATAPAAG”, the protein production entry is on record as “failed”.
In the case of “MAVYHLLLSSPPSLLLLPPSPRRPNLTLIRRIPAHPRLGNSTSLLSSSSPVIRKILVRSTLREDQPIASDSESSPTLLIGEDSAAFELGKQKLVSWVYFGVVLGVVLFILNVVWIDNSTGFGKSFIDAVSNISGSPEVAMLMLILIFAIVHSGLASLRDIGEKLIGERAFRVLFAGISLPLAMSTIVYFINHRYDGSQLWQLQGVPGVHEAIWVANFVSFFFLYPSTFNLLEVAAVDKPKMHLWETGIMRITRHPQMVGQIVWCLAHTLWIGNTVAASASLGLIAHHLFGAWNGDRRLAKRYGEDFESIKKRTSVIPFAAIFEGRQVLPEDYYKEFVRLPYLAITALTVGAYFAHPLMQGASFRLHW”, the protein production entry is recorded as “failed”.
Take “MAVYLDKEKPVSERVEDLLSKMTLAEKCGQLNQRMYGWEAFSRDGETFHITEKFKEEVTRFEGIGALYGLFRADPWSKMNKDTGVSRKNAGKVANKIQRYVIENTRLGIPVLLAEEVPHGHQALDSESYPVNLARAASFNPELQKQVASAITEEISEKGVHLALASALDILRDPRWGRAEECYGEDPYLAAELTAAITEGFQASGKIAVILKHFAAQGEPIGGHNSGPVSIGVRELREIFLEPMRAGIRSGALGVMAAYNEIDGVPCHANKELLTTILREEMGFSGIVMADGCALDRLLKLNPDPKKAAKMALEAGVDLSLWDEVFPFLEESVEKGILDEKVVDDAVRRVLQVKFQLGLFEQPFVEEEI”: the protein production entry is “failed”.
Next, “MAYAHVFASLTISTISLRRFLPRLHRNHSVKPNSRIICNLKLNYSAGKFREMGLSRSVELDQFITSEEEEGEAEEIGEGFFEAIEELERMTREPSDILEEMNHRLSSRELQLMLVYFAQEGRDSWCTLEVFEWLKKENRVDEEIMELMVSIMCGWVKKLIEDECNAHQVFDLLIEMDCVGLKPGFSMMDKVIALYCEMGKKESAVLFVKEVLRRRDGFGYSVVGGGGSEGRKGGPVGYLAWKFMVDGDYRKAVDMVMELRLSGLKPEAYSYLIAMTAIVKELNSLGKTLRELKRFARAGFVAEIDDHDRVLIEKYQSETLSRGLQLATWAVEEGQENDSIIGVVHERLLAMYICAGRGPEAEKQLWKMKLAGREPEADLHDIVMAICASQKEVNAVSRLLTRVEFMGSQRKKKTLSWLLRGYVKGGHFEEAAETLVSMIDSGLHPEYIDRVAVMQGMTRKIQRPRDVEAYMSLCKRLFDAGLPKTNLNDLRTSVSSYVFLKLSESEGESKAGGRNKNHRGKIVMELEDPTMADSTIKLTVKFGGKSIPLSVSPDCTVKDLKSQLQPITNVLPRGQKLIFKGKVLVETSTLKQSDVGSGAKLMLMASQGLHQGEGPILKEASIRPISRTVVSDKVDQRKPSVLVDKNRTDRWKATGVIALAQANLKEIPEEVWDCGSGVRVLDISENFIKEVPAKISSFGSMQKLFLQGNGLSDESIQWEGIASLKRLMLLSISHNNLTVLPSAMGSLTSLRQLDVTNNKLTSLPNELGLLTQLEILKANNNRITSLPESIGNCSFLMEVDLSANIISELPETFTKLRNLKTLELNNTGLKTLPSALFKMCLQLSTLGLHNTEITVEFLRQFEGYDDFDERRRTKHQKQLDFRVVGSGQFDEGADKSW”: “failed”; “MAYDGLFTKKMVESLQFLTTGRVHKINQPDNDTILMVVRQNRQNHQLLLSIHPNFSRLQLTTKKYDNPFNPPMFARVFRKHLEGGIIESIKQIGNDRRIEIDIKSKDEIGDTIYRTVILEIMGKHSNLILVDENRKIIEGFKHLTPNTNHYRTVMPGFNYEAPPTQHKINPYDITGAEVLKYIDFNAGNIAKQLLNQFEGFSPLITNEIVSRRQFMTSSTLPEAFDEVMAETKLPPTPIFHKNHETGKEDFYFIKLNQFNDDTVTYDSLNDLLDRFYDARGERERVKQRANDLVRFVQQQLHKYQNKLAKLIEEYEQSKNKDTEQLYGELITANIYRIKQGDKEVTALNYYTNEEVVIPLNPTKSPSANAQYYYKQYNRMKTRERELQHQIQLTKDNIDYFSTIEQQLHHISVHDIDEIRDELAEQGFMKQRKNQTKKKKAQ”: “not failed”.
For “MAYLVFAYLVGSLVAGLLFFPEVRGKDLPGGSGVFRRKGPWAALLAVAFDLGKGALVALLTPEAYLPWAGALLVAGHTWPVFFRFRGGGGIAPSLGFFLVWRPAETLWATLFGLGVAGLYHLLFWRRRRKGIYPIPFGAIFGYLLLVYTLSGEARLGALLVAGVVLLRGLQILAGRW”, the protein production entry is listed as “failed”.
For the sequence “MAYRKQLTRLKAPYLKRILLDPGRVEDWEKYPWNLPLFRGREFELEFTAPITIIVGENGTGKSTLLEAIGALAGYDEAGGGKGYMPVDHSRAIDKSGAALADNFRCHWLPKVTAGWFFRAESFYSVARYLDEAARESGATPPDFLSWSHGEGFIRFFEERCRRQGIYILDEPESALSPSRQIELLKMLRRMDQSGTAQVIMATHSPLLMACPGARLFRISRFGLEPADFRDTDHFRMLRDFSNDPDGFLAEALYEDEA”, the protein production result was “failed”.
Turning to “MAYSYTEKKRIRKDFSKLPDVMDVPYLLAIQLDSYREFLQAGATKEQFRDVGLHAAFKSVFPIISYSGNAALEYVGYRLGEPAFDVKECVLRGVTFAVPLRVKVRLIIFDRESSNKAIKDIKEQEVYMGEIPLMTENGTFIINGTERVIVSQLHRSPGVFFDHDRGKTHSSGKLLYSARIIPYRGSWLDFEFDPKDCVFVRIDRRRKLPASVLLRALGYSTEEILNAFYATNVFHIKGETLNLELVPQRLRGEVASIDIKDGSGKVIVEQGRRITARHINQLEKAGVSQLEVPFDYLIGRTIAKAIVHPATGEIIAECNTELTLDLLAKVAKAQVVRIETLYTNDIDCGPFISDTLKIDNTSNQLEALVEIYRMMRPGEPPTKEAAETLFGNLFFSAERYDLSAVGRMKFNRRIGRTEIEGPGVLSKEDIIDVLKTLVDIRNGKGIVDDIDHLGNRRVRCVGEMAENQFRVGLVRVERAVKERLSMAESEGLMPQDLINAKPVAAAIKEFFGSSQLSQFMDQNNPLSEITHKRRVSALGPGGLTRERAGFEVRDVHPTHYGRVCPIETPEGPNIGLINSLATYARTNKYGFLESPYRVVKDSLVTDEIVFLSAIEEADHVIAQASATLNEKGQLVDELVAVRHLNEFTVKAPEDVTLMDVSPKQVVSVAASLIPFLEHDDANRALMGSNMQRQAVPTLRADKPLVGTGMERNVARDSGVCVVARRGGVIDSVDASRVVVRVADDEVETGEAGVDIYNLTKYTRSNQNTCINQRPLVSKGDVVARGDILADGPSTDMGELALGQNMRVAFMPWNGFNFEDSICLSERVVQEDRFTTIHIQELTCVARDTKLGPEEITADIPNVGEAALNKLDEAGIVYVGAEVQAGDILVGKVTPKGETQLTPEEKLLRAIFGEKASDVKDTSLRVPTGTKGTVIDVQVFTRDGVERDSRALSIEKMQLDQIRKDLNEEFRIVEGATFERLRAALVGAKAEGGPALKKGTEITDDYLDGLERGQWFKLRMADDALNEQLEKAQAYISDRRQLLDDKFEDKKRKLQQGDDLAPGVLKIVKVYLAIKRRIQPGDKMAGRHGNKGVVSVIMPVEDMPHDANGTPVDIVLNPLGVPSRMNVGQILETHLGLAAKGLGEKINRMLEEQRKVAELRKFLHEIYNEIGGREENLDELGDNEILALAKNLRGGVPMATPVFDGAKEREIKAMLKLADLPESGQMRLFDGRTGNQFERPTTVGYMYMLKLNHLVDDKMHARSTGSYSLVTQQPLGGKAQFGGQRFGEMEVWALEAYGAAYTLQEMLTVKSDDVNGRTKMYKNIVDGDHRMEAGMPESFNVLIKEIRSLG”, the protein production entry was “failed”.
As for “MAYVTLYPNLILEALGKVRYPGTGKDLVSAGMVEDDIRIDGNKVSFSLIFDKANDPFIKSVVKAAESAILTYISEDVNIKGNISVKSKQAIPAPPAKLLPGVKNIIAVFSGKGGVGKSTVTANLAVSLAKSGYRVGLLDADIFGPSMPKMFHCEESRPVLEEVDGRELIVPEEVMGVKILSIGFFVDPDNAVLWRGSMAGNALTQLIRDANWGELDYFLIDMPPGTSDIHLTLVQTLAITGAVVVTTPQDVALADARKGISMFVGEKINVPVLGLVENMSWFTPAELPQNKYYIFGRDGGKNLAEELNIPLLGQIPLVQGICQSGDEGIPVAVRDDSMMGIAFRELAARVVEQVDYRNEHLDPTKVVEVAHR”, the entry is “failed”; as for “MCDKDIYNNKEMIILNKQQVTKAIEKVLNSSKIGVLSTAHHNKPNSRYMVFYNDDLNLYTKTNVNSLKVEEIENNPDAHILLGYNETTNNSFVEIDATIEVVKDQKVIDWLWETQDKTFFNSKEDPELCVLKVIPRSIKLMNDDELDTPATIEL”, “not failed”; as for “MCEHHHAAKHILCSQCDMLVALPRLEHGQKAACPRCGTTLTVAWDAPRQRPTAYALAALFMLLLSNLFPFVNMNVAGVTSEITLLEIPGVLFSEDYASLGTFFLLFVQLVPAFCLITILLLVNRAELPVRLKEQLARVLFQLKTWGMAEIFLAGVLVSFVKLMAYGSIGVGSSFLPWCLFCVLQLRAFQCVDRRWLWDDIAPMPELRQPLKPGVTGIRQGLRSCSCCTAILPADEPVCPRCSTKGYVRRRNSLQWTLALLVTSIMLYLPANILPIMVTDLLGSKMPSTILAGVILLWSEGSYPVAAVIFLASIMVPTLKMIAIAWLCWDAKGHGKRDSERMHLIYEVVEFVGRWSMIDVFVIAVLSALVRMGGLMSIYPAMGALMFALVVIMTMFSAMTFDPRLSWDRQPESEHEES”, “failed”.
Turning to “MCEYTYSNGKKCRRKPLKGSKYCSLHIPFEEGELLYGDRIKYIKKRAFERALERGIRNFEGVKLYDVIIVGKEINEALIFRNSIIKRLVIVTSKIKSLSLIDTTIDTLVIVNSEVDFFYVNGGSIYGVSICSVKFSSSILFRDSSIRYVMINSTEFSPKEVTTEEEFGEKVRIAGRIELANLKDVRRIALNSKYPLMAKIMEEFGIKLSLDRKKPVRVHTLTITGVEFDESPRFRKQVRIFINRFSGQLIFENLSVPGHVEIVNSRVRYPEFVHVIIHNNLVLRNTRLYSDENWNLAYLPNLLAELNVYGFIVIDNCQFNNPYLAEVFYRIARTTWEGSGDKENADEYYYLEMLARRKKVIQHYRKGPRTLKKMVKLLEVLFEFLFADLTCKYGTDWKRPVFLWMGLVIFVFPVFYALTKSVVPTSSLFDYVYFSIVTATTLGYGDLHPIGVGKVIASIEAIFGMFMWAVFLTVFARKYMR”, the protein production result is “failed”.
As to “MCGDCVEKEYPNRGNTCLENGSFLLNFTGCAVCSKRDFMLITNKSLKEEDGEEIVTYDHLCKNCHHVIARHEYTFSIMDEFQEYTMLCLLCGKAEDTISILPDDPRQMTLLF”, the protein production result is listed as “failed”.
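Note: failed if final PepcDB status was selected cloned or expressed and not failed if soluble or beyond.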
